From US20210032342A1 (Merck Sharp & Dohme, published 2021)

T1: human LAG-3 expressed by the CD4+ T-cell clone BC4-49 (human, UniProt P18627 23-525)
T1 construct: whole, on cells
T1 sequence (looked up): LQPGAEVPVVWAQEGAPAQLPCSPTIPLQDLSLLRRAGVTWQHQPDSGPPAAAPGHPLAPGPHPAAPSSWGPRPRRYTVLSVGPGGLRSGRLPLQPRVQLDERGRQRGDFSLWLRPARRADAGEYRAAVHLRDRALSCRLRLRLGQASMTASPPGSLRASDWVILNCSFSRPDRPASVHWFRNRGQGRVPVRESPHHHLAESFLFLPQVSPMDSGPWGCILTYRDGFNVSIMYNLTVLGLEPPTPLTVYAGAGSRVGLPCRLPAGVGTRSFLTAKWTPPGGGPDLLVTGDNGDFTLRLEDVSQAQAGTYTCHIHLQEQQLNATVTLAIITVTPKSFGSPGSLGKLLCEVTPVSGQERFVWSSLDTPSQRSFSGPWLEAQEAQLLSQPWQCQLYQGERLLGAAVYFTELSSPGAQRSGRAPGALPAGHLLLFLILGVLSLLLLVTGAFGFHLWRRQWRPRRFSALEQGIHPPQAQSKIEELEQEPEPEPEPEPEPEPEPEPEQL


Assays:
[1] = target: human PD-1 expressed on cells (Jurkat.hPD-1.IL2luc clone DT999A1; CD4+ T cell clone BC4-49) (human, UniProt Q15116 25-288); experiment: cell-based or functional assay
Sequence of human PD-1 expressed on cells (Jurkat.hPD-1.IL2luc clone DT999A1; CD4+ T cell clone BC4-49) (Q15116 25-288): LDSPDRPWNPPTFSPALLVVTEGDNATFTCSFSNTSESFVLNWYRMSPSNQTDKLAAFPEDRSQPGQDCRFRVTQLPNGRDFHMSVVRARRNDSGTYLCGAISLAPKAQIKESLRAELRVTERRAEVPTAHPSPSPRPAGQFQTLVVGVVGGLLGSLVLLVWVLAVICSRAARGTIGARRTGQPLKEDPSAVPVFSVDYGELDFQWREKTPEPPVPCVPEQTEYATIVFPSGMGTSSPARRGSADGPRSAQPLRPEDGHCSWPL

[2] = target: T1, human LAG-3 expressed by the CD4+ …; experiment: T-cell clone + JY.hPD-L1 co-culture (conclusion stated from IFNγ read-out)
Description: The pellets were resuspended into single cell suspension in Yssel's medium. […] Fifty microliters of T cell suspension at a density of 4×10⁵ cells/mL was added into wells containing titrated antibodies. The antibody/T cell mixture was pre-incubated for 1 hour in an incubator at 37° C. with 5% CO₂. Human PD-L1 transgene expressing JY cells (JY.hPD-L1) were used in co-cultures to provide allo-specific antigens. […] The pellet was resuspended with Yssel's medium, and filtered with 40 μm cell strainer before plating. Fifty μL/well of JY.hPD-L1 suspension at a concentration of 2×10⁵ cells/mL was dispensed into pre-incubated antibody-T cells mixture, with T cell to JY.hPD-L1 cell ratio at 2:1. All conditions were run in duplicates. After approximately 3-day culture, 100 μL of supernatant per well was harvested for human IFNγ quantification. Human IFNγ ELISA was performed to assess IFNγ level on pooled supernatant from duplicates by using hIFNγ QUANTIKINE kit (R&D Systems, SIF50). Assays were run following the standard protocol provided by manufacturer. EC50 values were calculated using the [sequence] prism software.

[3] = target: T2, polyhistidine-tagged human PD-1 (hPD1-His, 98AFK) (human, UniProt Q15116 25-167, limits assumed); experiment: SPR solution affinity; reference Humanized 08A IgG4 S61N (98AIO)
T2 construct: also called human PD1-His; Human PD-1-His; not shown: polyhistidine tag
T2 sequence (Q15116 25-167 limits assumed): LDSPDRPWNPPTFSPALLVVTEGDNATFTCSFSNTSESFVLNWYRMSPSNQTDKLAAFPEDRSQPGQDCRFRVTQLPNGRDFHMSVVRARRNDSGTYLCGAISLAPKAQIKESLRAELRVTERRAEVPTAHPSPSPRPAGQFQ
Description: The titration series were incubated for 16-24 hours to reach equilibrium at room temperature. The unbound sites were measured using a BIAcore chip immobilized with antigen in a competition mode where SPR signal detected corresponded to unbound antibody.
Free, unbound antibodies concentrations were measured as proportional to RU after 120 seconds (for 500 pM mAb series) or 400 seconds (for 100 pM mAb series) of injection at 10 μL/min.
Data analyses were performed using KINEXA Pro Version 1.02 (Sapydyne) where RUs were normalized and plotted against concentrations.

Row | Binder | AVG EC50, IL-2 luciferase reporter (Jurkat.hPD-1.IL2luc + THP-1.PD-L1 assay) [1] | binding result [2] | KD (REF)/KD [3]
1 | Anti-PD-1/LAG3 bispecific antibody 90ASU (bispecific antibody, human IgG1, kappa, L234A L235A, also called Humanized x [PD-1_H]; [LAG3_H]; BsAb (hu08A S61N G56A arm / 22D2 arm) IgG1/Kappa) heavy 1: not shown light 1: DIVMTQTPLSLSVTPGQPASISCRASKSVSTSGFSYLHWYLQKPGQPPQLLIFLASNLESGVPDRFSGSGSGTDFTLKISRVEAEDVGVYYCQHSWELPLTFGQGTKLEIKRTVAAPSVFIFPPSDERLKSGTASVVCLLNNFYPREAKVQWKVDNALQSGNSQESVTEQDSKDSTYSLSSRLTLSKADYEKHKVYACEVTHQGLSSPVTKSFNRGEC heavy 2: QMQLVQSGPEVKKPGTSVKVSCKASGYTFTDYNVDWVRQARGQRLEWIGDINPNDGGTIYAQKFQERVTITVDKSTSTAYMELSSLRSEDTAVYYCARNYRWFGAMDHWGQGTTVTVSSASTKGPSVFPLAPSSKSTSGGTAALGCLVKDYFPEPVTVSWNSGALTSGVHTFPAVLQSSGLYKLSSVVTVPSSSLGTQTYICNVNHKPSNTKVDKKVEPKSCDKTHTCPPCPAPEAAGGPSVFLFPPKPKDTLMISRTPEVTCVVVSVSHEDPEVKFNWYVDGVEVHNAKTKPREEQYNSTYRVVSVLTVLHQDWLNGKEYKCKVSNKALPAPIEKTISKAKGQPREPQVYVLPPSRDELTKNQVSLLCLVKGFYPSDIAVEWESNGQPENNYLTWPPVLDSDGSFFLYSKLTVDKSRWQQGNVFSCSVMHEALHNHYTQKSLSLSPG light 2: DIVMTQTPLSLSVTPGQPASISCKASQSLDYEGDSDMNWYLQKPGQPPQLLIYGASNLESGVPDRFSGSGSGTDFTLKISRVEAEDVGVYYCQQSTEDPRTFGGGTKVEIKRTVAAPSVFIFPPSDEELKSGTATVVCLLNNFYPREAKVQWKVDNALQSGNSQESVTEQDSKDSTYSLSSYLELSKADYEKHKVYACEVTHQGLSSPVTKSFNRGEC | 2.54 nM | binds | 
2 | Anti-PD-1/LAG-3 bispecific antibody (BsAb) 18ASS (bispecific antibody, human IgG1, kappa, L234A L235A) heavy 1: not shown light 1: DIVMTQTPLSLSVTPGQPASISCRASKSVSTSGFSYLHWYLQKPGQPPQLLIFLSKYRSSGVPDRFSGSGSGTDFTLKISRVEAEDVGVYYCSQAYHLPLTFGQGTKLEIKRTVAAPSVFIFPPSDERLKSGTASVVCLLNNFYPREAKVQWKVDNALQSGNSQESVTEQDSKDSTYSLSSRLTLSKADYEKHKVYACEVTHQGLSSPVTKSFNRGEC heavy 2: QMQLVQSGPEVKKPGTSVKVSCKASGYTFTDYNVDWVRQARGQRLEWIGDINPNDGGTIYAQKFQERVTITVDKSTSTAYMELSSLRSEDTAVYYCARNYRWFGAMDHWGQGTTVTVSSASTKGPSVFPLAPSSKSTSGGTAALGCLVKDYFPEPVTVSWNSGALTSGVHTFPAVLQSSGLYKLSSVVTVPSSSLGTQTYICNVNHKPSNTKVDKKVEPKSCDKTHTCPPCPAPEAAGGPSVFLFPPKPKDTLMISRTPEVTCVVVSVSHEDPEVKFNWYVDGVEVHNAKTKPREEQYNSTYRVVSVLTVLHQDWLNGKEYKCKVSNKALPAPIEKTISKAKGQPREPQVYVLPPSRDELTKNQVSLLCLVKGFYPSDIAVEWESNGQPENNYLTWPPVLDSDGSFFLYSKLTVDKSRWQQGNVFSCSVMHEALHNHYTQKSLSLSPG light 2: DIVMTQTPLSLSVTPGQPASISCKASQSLDYEGDSDMNWYLQKPGQPPQLLIYGASNLESGVPDRFSGSGSGTDFTLKISRVEAEDVGVYYCQQSTEDPRTFGGGTKVEIKRTVAAPSVFIFPPSDEELKSGTATVVCLLNNFYPREAKVQWKVDNALQSGNSQESVTEQDSKDSTYSLSSYLELSKADYEKHKVYACEVTHQGLSSPVTKSFNRGEC | 0.55 nM |  | 

More lines, now with the values ahead:

Row | AVG EC50, IL-2 luciferase reporter (Jurkat.hPD-1.IL2luc + THP-1.PD-L1 assay) [1] | binding result [2] | KD (REF)/KD [3] | Binder
3 | 3.12 nM |  |  | Anti-PD-1/LAG3 bispecific antibody 33ARK (bispecific antibody, human IgG1, kappa, L234A L235A) heavy 1: EVQLVQSGAEVKKPGASVKVSCKASGYTFTSYYLYWVREAPGQGLEWIGGVNPSNGGTNFNEKFKSRVTLTVDTSISTAYMELSRLRSDDTAVYYCTRRDSNYDGGFDYWGQGTTVTVSSASTKGPSVFPLAPSSKSTSGGTAALGCEVTDYFPEPVTVSWNSGALTSGVHTFPAVLESSGLYSLSSVVTVPSSSLGTQTYICNVNHKPSNTKVDKKVEPKSCDKTHTCPPCPAPEAAGGPSVFLFPPKPKDTLMISRTPEVTCVVVSVSHEDPEVKFNWYVDGVEVHNAKTKPREEQYNSTYRVVSVLTVLHQDWLNGKEYKCKVSNKALPAPIEKTISKAKGQPREPQVYVLPPSRDELTKNQVSLLCLVKGFYPSDIAVEWESNGQPENNYLTWPPVLDSDGSFFLYSKLTVDKSRWQQGNVFSCSVMHEALHNHYTQKSLSLSPG light 1: DIVMTQTPLSLSVTPGQPASISCRASKSVSTSGFSYLHWYLRKPGQPPQLLIFLASNLESGVPDRFSGSGSGTDFTLKISRVEAEDVGVYYCQHSWELPLTFGQGTKLEIKRTVAAPSVFIFPPSDERLKSGTASVVCLLNNFYPREAKVQWKVDNALQSGNSKESVTEQDSKDSTYSLSSRLTLSKADYEKHKVYACEVTHQGLSSPVTKSFNRGEC heavy 2: not shown light 2: DIVMTQTPLSLSVTPGQPASISCKASQSLDYEGDSDMNWYLEKPGQPPQLLIYGASNLESGVPDRFSGSGSGTDFTLKISRVEAEDVGVYYCQQSTEDPRTFGGGTKVEIKRTVAAPSVFIFPPSDEELKSGTASVVCLLNNFYPREAKVQWKVDNALQSGNSEESVTEQDSKDSTYSLSSTLELSKADYEKHKVYACEVTHQGLSSPVTKSFNRGEC
4 | 3.32 nM |  |  | Humanized x [PD-1_H] Fab (08A/HuPD1A-11 S61N WT) IgG4/Kappa (00APE) (Fab, V domains shown) VH: EVQLVQSGAEVKKPGASVKVSCKASGYTFTSYYLYWVRQAPGQGLEWIGGVNPSNGGTNFNEKFKSRVTLTVDTSISTAYMELSRLRSDDTAVYYCTRRDSNYDGGFDYWGQGTTVTVSS VL: DIVMTQTPLSLSVTPGQPASISCRASKSVSTSGFSYLHWYLQKPGQPPQLLIFLASNLESGVPDRFSGSGSGTDFTLKISRVEAEDVGVYYCQHSWELPLTFGQGTKLEIKR
5 |  |  | 13 | Humanized x [PD-1_H] mAb (08A/HuPD1A-11 S61N CP-affinity matured Fab 100 (VH H3G9 (D100L N102H) G56A/VL L28D1) L234A L235A D265S) IgG1/Kappa (25AVE) (antibody, V domains shown, also called Humanized 08A IgG4 Fab 100 S61N G56A) VH: EVQLVQSGAEVKKPGASVKVSCKASGYTFTSYYLYWVRQAPGQGLEWIGGVNPSNAGTNFNEKFKSRVTLTVDTSISTAYMELSRLRSDDTAVYYCTRRLSHYDGGFDYWGQGTTVTVSS VL: DIVMTQTPLSLSVTPGQPASISCRASKSVSTSGFSYLHWYLQKPGQPPQLLIFLSKYRSSGVPDRFSGSGSGTDFTLKISRVEAEDVGVYYCSQAYHLPLTFGQGTKLEIKR
